Data published in US20100159529, “DRY COMPOSITION OF REACTION COMPOUNDS WITH STABILIZED POLMERASE” (published 2010).

Key:
[1] = biological target: T1, Taq DNA polymerase (UniProt P19821 P19821:1-832); test: indirect functional evidence: 0.5 uM aptamer with 0.8 U/ul Taq preserves qPCR activity after drying with primers/probes and 1 week at 37 C; Wsebi Cp 24.8 vs liquid reference 24.7; 60 mM Tris pH 8.3, 60 mM KCl, 6.4 mM MgCl2; binding not measured directly; conditions: tags: glycerol free; Roche AptaTaq when complexed with aptamer
Experimental: The PCR performance of the polymerase with both aptamers were analyzed with detection mix (with primers and probes) after storage and re-solubilization using two different parameters. The liquid mixtures were dried 16 hours at 200 mbar and stored for 1 week at 37° C. prior to re-solubilization. As a control a liquid mixture without drying was used, too (called liquid reference in the following).

[2] = biological target: T1, Taq DNA polymerase; test: cell_free PCR activity after drying, other; indirect functional evidence: aptamer (0.65 pmol/U Taq) preserves qPCR activity after drying with primers/probes and 1 week at 37 C; Wsebi casein Cp 24.0 vs no; conditions: tags: glycerol free; Roche AptaTaq when complexed with aptamer
Experimental: The PCR performance of the polymerase after storage and re-solubilization was analyzed with and without detection mix (with or without primers and probes) using two different parameters. The liquid mixtures were dried 16 hours at 200 mbar and stored for 1 week at 37° C. prior to re-solubilization. As a control a liquid mixture without drying was used, too (called liquid reference in the following).
All mixtures were provided within wells of a 384 microtiter plate (Roche Diagnostic GmbH) and after the re-solubilization a PCR run was performed on the LightCycler®480 (Roche Diagnostic GmbH) using the following run protocol: [0123] 5 minutes 95° C. [0124] 10 seconds 95° C., 30 seconds 60° C., 1 second 72° C. (45×) [0125] 10 seconds 40° C.

T1 sequence (P19821 whole entry, one chain of several): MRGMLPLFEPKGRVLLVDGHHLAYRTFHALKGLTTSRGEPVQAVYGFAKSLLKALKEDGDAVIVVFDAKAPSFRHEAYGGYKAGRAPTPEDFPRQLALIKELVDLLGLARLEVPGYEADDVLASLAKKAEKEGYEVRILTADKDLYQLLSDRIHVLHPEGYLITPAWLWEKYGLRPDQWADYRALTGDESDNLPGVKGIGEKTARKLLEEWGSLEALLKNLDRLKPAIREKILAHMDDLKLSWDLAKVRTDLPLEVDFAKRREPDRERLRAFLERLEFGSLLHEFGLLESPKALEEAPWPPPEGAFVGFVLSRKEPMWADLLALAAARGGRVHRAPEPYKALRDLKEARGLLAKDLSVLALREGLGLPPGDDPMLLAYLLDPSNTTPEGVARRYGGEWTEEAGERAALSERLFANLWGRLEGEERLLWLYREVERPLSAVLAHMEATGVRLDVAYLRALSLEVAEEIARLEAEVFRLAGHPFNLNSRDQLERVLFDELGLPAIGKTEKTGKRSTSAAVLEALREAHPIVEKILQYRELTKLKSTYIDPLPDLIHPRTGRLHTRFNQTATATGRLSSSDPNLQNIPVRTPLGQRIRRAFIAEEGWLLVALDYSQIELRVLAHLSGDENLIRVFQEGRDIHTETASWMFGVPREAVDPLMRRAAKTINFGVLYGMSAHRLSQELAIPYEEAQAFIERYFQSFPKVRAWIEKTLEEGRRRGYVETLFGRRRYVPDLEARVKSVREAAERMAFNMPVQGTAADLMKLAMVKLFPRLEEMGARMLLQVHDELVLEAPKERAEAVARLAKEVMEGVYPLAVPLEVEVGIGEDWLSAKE

| Binder | binding result [1] | binding result [2] |
| --- | --- | --- |
| GATCATCTCAGAACATTCTTAGCGTTTTGTTCTTGTGTATGA (ssDNA) [21-42-P (also printed 21-41-P)] | binds |  |
| CGATCATCTCAGAACATTCTTAGCGTTTTGTTCTTGTGTATGATCG (ssDNA) [NTQ12-46A] |  | binds |
